Assay [1] addresses Mus musculus arginyltransferase 1 isoform 1 (MmATE1-1), affinity tag cleaved, apo (Mus musculus) (UniProt Q9Z2A5). The assay can be described thus: SEC-MALS. (In general: In gel filtration, larger molecules generally elute earlier.)
Assay [2] concerns the target Mus musculus arginyltransferase 1 isoform 1 (MmATE1-1), affinity tag intact, apo (Mus musculus) (UniProt Q9Z2A5). Put plainly: SEC-MALS.

From paper PMC11370617 come the findings set out here.

A value given as a limit tells only on which side of the number the result lay.

“Mus musculus arginyltransferase 1 isoform 1 (MmATE1-1), affinity tag cleaved, apo (from UniProt Q9Z2A5 1-516) (enzyme)” showed a percent of the total protein that is dimeric in assay [1] of under 20%.
The substance “Mus musculus arginyltransferase 1 isoform 1 (MmATE1-1), affinity tag intact, apo (from UniProt Q9Z2A5 1-516) (enzyme)” showed a percent of the total protein that is dimeric in assay [2] of under 20%.
